This is an account of results in US20190302117.

For series [1], the target named is T1, Peptide 10: EDPIYVTLEGGKKK (version of peptide 2 used for the kinetic experiments).
T1 chain: EDPIYVTLEGGKKK

Series [2] concerns the target T2, Peptide 11: DEAIYATVAGGKKK (version of peptide 5 used for the kinetic experiments).
T2 chain: DEAIYATVAGGKKK

B1: BTK as GST fusion protein (protein)
chain: MAAVILESIFLKRSQQKKKTSPLNFKKRLFLLTVHKLSYYEYDFERGRRGSKKGSIDVEKITCVETVVPEKNPPPERQIPRRGEESSEMEQISIIERFPYPFQVVYDEGPLYVFSPTEELRKRWIHQLKNVIRYNSDLVQKYHPCFWIDGQYLCCSQTAKNAMGCQILENRNGSLKPGSSHRKTKKPLPPTPEEDQILKKPLPPEPAAAPVSTSELKKVVALYDYMPMNANDLQLRKGDEYFILEESNLPWWRARDKNGQEGYIPSNYVTEAEDSIEMYEWYSKHMTRSQAEQLLKQEGKEGGFIVRDSSKAGKYTVSVFAKSTGDPQGVIRHYVVCSTPQSQYYLAEKHLFSTIPELINYHQHNSAGLISRLKYPVSQQNKNAPSTAGLGYGSWEIDPKDLTFLKELGTGQFGVVKYGKWRGQYDVAIKMIKEGSMSEDEFIEEAKVMMNLSHEKLVQLYGVCTKQRPIFIITEYMANGCLLNYLREMRHRFQTQQLLEMCKDVCEAMEYLESKQFLHRDLAARNCLVNDQGVVKVSDFGLSRYVLDDEYTSSVGSKFPVRWSPPEVLMYSKFSSKSDIWAFGVLMWEIYSLGKMPYERFTNSETAEHIAQGLRLYRPHLASEKVYTIMYSCWHEKADERPTFKILLSNILDVMDEES
As to B1, in series [1], the 2/5 kcat/Km ratio (peptide 2 against peptide 5) was 0.31, the Michaelis constant (Km) amounted to 64 µM, the kcat amounted to 0.061 s⁻¹ and the kcat/Km came to 970 M⁻¹ s⁻¹. Besides, in series [2], the Km was determined as 84 µM, the kcat amounted to 0.26 s⁻¹ and the kcat/Km amounted to 3170 M⁻¹ s⁻¹.

B2: His6-ALK 1090-1416 (protein)
chain: HHHHHHTDYNPNYCFAGKTSSISDLKEVPRKNITLIRGLGHGAFGEVYEGQVSGMPNDPSPLQVAVKTLPEVCSEQDELDFLMEALIISKFNHQNIVRCIGVSLQSLPRFILLELMAGGDLKSFLRETRPRPSQPSSLAMLDLLHVARDIACGCQYLEENHFIHRDIAARNCLLTCPGPGRVAKIGDFGMARDIYRASYYRKGGCAMLPVKWMPPEAFMEGIFTSKTDTWSFGVLLWEIFSLGYMPYPSKSNQEVLEFVTSGGRMDPPKNCPGPVYRIMTQCWQHQPEDRPNFAIILERIEYCTQDPDVINTALPIEYGPLVEEEEKVPVRPK
In the case of B2, in series [1], the 2/5 kcat/Km ratio (peptide 2 against peptide 5) worked out at 1.23, the Km is greater than 200 µM, the kcat was greater than 0.02 s⁻¹ and the kcat/Km worked out at 95 M⁻¹ s⁻¹. Moreover, in series [2], the Km is greater than 200 µM, the kcat is greater than 0.02 s⁻¹ and the kcat/Km was found to be 79 M⁻¹ s⁻¹.

B3: GST-FLT3 564-993 (intracellular portion of human FLT3 fused to GST) (protein)
chain: HKYKKQFRYESQLQMVQVTGSSDNEYFYVDFREYEYDLKWEFPRENLEFGKVLGSGAFGKVMNATAYGISKTGVSIQVAVKMLKEKADSSEREALMSELKMMTQLGSHENIVNLLGACTLSGPIYLIFEYCCYGDLLNYLRSKREKFHRTWTEIFKEHNFSFYPTFQSHPNSSMPGSREVQIHPDSDQISGLHGNSFHSEDEIEYENQKRLEEEEDLNVLTFEDLLCFAYQVAKGMEFLEFKSCVHRDLAARNVLVTHGKVVKICDFGLARDIMSDSNYVVRGNARLPVKWMAPESLFEGIYTIKSDVWSYGILLWEIFSLGVNPYPGIPVDANFYKLIQNGFKMDQPFYATEEIYIIMQSCWAFDSRKRPSFPNLTSFLGCQLADAEEAMYQNVDGRVSECPHTYQNRRPFSREMDLGLLSPQAQVEDS
B3: in series [1], the Km came out at 41 µM, the kcat was 0.013 s⁻¹ and the kcat/Km was 304 M⁻¹ s⁻¹.
